Data from publication PMC7530888 (Nucleic Acids Research, 2020).

Key:
Experiment in all cases: SPR
[1] = target: MtbLigA^G614I (M. tuberculosis, UniProt P9WNV1 1-691, G614I)
[2] = target: MtbLigA^G621I (M. tuberculosis, UniProt P9WNV1 1-691, G621I)
[3] = target: MtbLigA^G639V (M. tuberculosis, UniProt P9WNV1 1-691, G639V)
[4] = target: Full-length His-tagged MtbLigA (M. tuberculosis, UniProt P9WNV1 1-691)

| Binder | Kd [1] [nM] | Kd [2] [nM] | Kd [3] [nM] | Kd [4] [nM] |
| --- | --- | --- | --- | --- |
| GST-tagged MtbXthA (enzyme) MPDGTIDGGHPQRPASPRLRSPLLRLATWNVNSIRTRLDRVLDWLGRADVDVLAMQETKCPDGQFPALPLFELGYDVAHVGFDQWNGVAIASRVGLDDVRVGFDGQPSWSGKPEVAATTEARALGATCGGIRVWSLYVPNGRALDDPHYTYKLDWLAALRDTAEGWLRDDPAAPIALMGDWNIAPTDDDVWSTEFFAGCTHVSEPERKAFNAIVDAQFTDVVRPFTPGPGVYTYWDYTQLRFPKKQGMRIDFILGSPALAARVMDAQIVREERKGKAPSDHAPVLVDLHAG | 781 | 154 | 2770 | – |
| GST-tagged MtbXthA^ID (interaction-defective triple mutant) (enzyme) MPDGTIDGGHPQRPASPRLRSPLLRLATWNVNSIRTRLDRVLDWLGRADVDVLAMQETKCPDGQFPALPLFELGYDVAHVGFDQWNGVAIASRVGLDDVRVGFDGQPSWALAPEVAATTEARALGATCGGIRVWSLYVPNGRALDDPHYTYKLDWLAALRDTAEGWLRDDPAAPIALMGDWNIAPTDDDVWSTEFFAGCTHVSEPERKAFNAIVDAQFTDVVRPFTPGPGVYTYWDYTQLRFPKKQGMRIDFILGSPALAARVMDAQIVREERKGKAPSDHAPVLVDLHAG | – | – | 9010 | 613 |
